In PMC7939381 (2020):
Where “and” joins values, the source holds several entries; their conditions need not be identical. Identical values can stand only once. Like-named read-outs stand apart in the source and are kept apart here. Primed or numbered codes have the meaning given here. Where no end group is shown, it is not given here. [ ]: non-standard residue; d: D form. The star is where a group is joined. PEG2′ = short PEG linker placed between the N-terminal FITC label and the peptide; FITC = O=C1OC2(c3ccc(O)cc3Oc3cc(O)ccc32)c2ccc(NC(=S)*)cc21; pT = C[C@@H](OP(=O)(O)O)[C@H](N)C(=O)O; pS = N[C@@H](COP(=O)(O)O)C(=O)O

T1: 14-3-3ζ, full length, N-terminally His6-tagged (human, UniProt P63104 1-245)
T1 chain: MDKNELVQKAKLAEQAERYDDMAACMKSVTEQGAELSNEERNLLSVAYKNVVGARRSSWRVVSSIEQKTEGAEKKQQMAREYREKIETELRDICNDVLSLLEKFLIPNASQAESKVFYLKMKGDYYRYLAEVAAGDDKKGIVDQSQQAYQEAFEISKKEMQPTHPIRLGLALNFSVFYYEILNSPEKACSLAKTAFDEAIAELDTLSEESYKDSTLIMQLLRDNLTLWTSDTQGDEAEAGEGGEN

T2: 14-3-3γ, full length, N-terminally His6-tagged (human, UniProt P61981 1-247)
T2 chain: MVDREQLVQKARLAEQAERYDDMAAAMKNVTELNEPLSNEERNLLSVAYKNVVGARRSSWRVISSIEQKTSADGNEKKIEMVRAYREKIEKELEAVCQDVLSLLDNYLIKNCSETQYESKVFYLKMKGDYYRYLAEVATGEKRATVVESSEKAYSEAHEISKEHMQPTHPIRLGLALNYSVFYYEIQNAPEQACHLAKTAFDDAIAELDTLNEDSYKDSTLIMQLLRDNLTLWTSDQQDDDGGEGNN

T3: 14-3-3θ, full length, N-terminally His6-tagged (human, UniProt P27348 1-245)
T3 chain: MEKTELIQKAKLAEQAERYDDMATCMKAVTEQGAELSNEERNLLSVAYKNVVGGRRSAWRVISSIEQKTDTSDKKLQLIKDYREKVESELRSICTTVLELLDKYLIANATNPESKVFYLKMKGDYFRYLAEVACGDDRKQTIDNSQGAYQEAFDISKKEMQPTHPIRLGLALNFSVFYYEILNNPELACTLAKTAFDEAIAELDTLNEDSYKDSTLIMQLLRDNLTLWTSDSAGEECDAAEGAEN

T4: 14-3-3ε, full length, N-terminally His6-tagged (human, UniProt P62258 1-255)
T4 chain: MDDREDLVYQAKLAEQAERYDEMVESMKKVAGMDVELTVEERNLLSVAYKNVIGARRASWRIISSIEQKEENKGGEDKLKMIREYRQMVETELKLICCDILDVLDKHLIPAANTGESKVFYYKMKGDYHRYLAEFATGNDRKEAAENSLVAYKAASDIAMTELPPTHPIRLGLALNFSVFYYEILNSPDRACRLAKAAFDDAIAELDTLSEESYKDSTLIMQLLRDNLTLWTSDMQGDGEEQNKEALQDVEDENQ

B1: fluorescently labeled peptide 12, APN 36–73, bis-phosphorylated (peptide)
peptide: {FITC-PEG2′}-EKNKNAN[pS]SPVASTTPSASATTNPASATTLDQSKAWNR
modifications: also: second phosphorylation within Ser61–Thr64, site not given here
B2: fluorescently labeled peptide 7, APN 36–73 pSer43 (peptide)
peptide: EKNKNAN[pS]SPVASTTPSASATTNPASATTLDQSKAWNR
modifications: not fully specified (N-terminus); also: FITC via PEG2 linker, site not given here
B3: fluorescently labeled peptide 11, APN 36–73 pSer43 pThr63 (peptide)
peptide: EKNKNAN[pS]SPVASTTPSASATTNPASA[pT]TLDQSKAWNR
modifications: not fully specified (N-terminus); also: FITC via PEG2 linker, site not given here
B4: fluorescently labeled peptide 8, APN 36–73, bis-phosphorylated (peptide)
peptide: {FITC-PEG2′}-EKNKNAN[pS]SPVASTTPSASATTNPASATTLDQSKAWNR
modifications: also: second phosphorylated Ser/Thr, site not given here
B5: 14-3-3σ, full length, N-terminally His6-tagged (natural protein)
chain: MERASLIQKAKLAEQAERYEDMAAFMKGAVEKGEELSCEERNLLSVAYKNVVGGQRAAWRVLSSIEQKSNEEGSEEKGPEVREYREKVETELQGVCDTVLGLLDSHLIKEAGDAESRVFYLKMKGDYYRYLAEVATGDDKKRIIDSARSAYQEAMDISKKEMPPTNPIRLGLALNFSVFHYEIANSPEEAISLAKTTFDEAMADLHTLSEDSYKDSTLIMQLLRDNLTLWTADNAGEEGGEAPQEPQS
B6: FITC-labeled peptide 1, APN 38–46 pSer43 (peptide)
peptide: {FITC-PEG2′}-NKNAN[pS]SPV
B7: 14-3-3η, full length, N-terminally His6-tagged (natural protein)
chain: MGDREQLLQRARLAEQAERYDDMASAMKAVTELNEPLSNEDRNLLSVAYKNVVGARRSSWRVISSIEQKTMADGNEKKLEKVKAYREKIEKELETVCNDVLSLLDKFLIKNCNDFQYESKVFYLKMKGDYYRYLAEVASGEKKNSVVEASEAAYKEAFEISKEQMQPTHPIRLGLALNFSVFYYEIQNAPEQACLLAKQAFDDAIAELDTLNEDSYKDSTLIMQLLRDNLTLWTSDQQDEEAGEGN
B8: peptide 14, monophosphorylated APN 9-mer (noncanonical site of peptide 10) (peptide)
chain: TTNPASATT
modifications: also: one phosphorylated Ser/Thr within Ser61–Thr64
B9: fluorescently labeled peptide 10, APN 36–73, bis-phosphorylated (peptide)
peptide: {FITC-PEG2′}-EKNKNAN[pS]SPVASTTPSASATTNPASATTLDQSKAWNR
modifications: also: second phosphorylation within Ser61–Thr64, site not given here
B10: peptide 16, monophosphorylated APN 9-mer (noncanonical site of peptide 12) (peptide)
chain: PASATTLDQ
modifications: also: one phosphorylated Ser/Thr within Ser61–Thr64
B11: fluorescently labeled peptide 9, APN 36–73, bis-phosphorylated (peptide)
peptide: {FITC-PEG2′}-EKNKNAN[pS]SPVASTTPSASATTNPASATTLDQSKAWNR
modifications: also: second phosphorylated Ser/Thr, site not given here
B12: peptide 15, monophosphorylated APN 9-mer pThr63 (site 2) (peptide)
chain: NPASA[pT]TLD
B13: peptide 1, APN 38–46 pSer43, as used in ITC (peptide)
peptide: NKNAN[pS]SPV
B14: 14-3-3β/α, full length, N-terminally His6-tagged (natural protein)
chain: MTMDKSELVQKAKLAEQAERYDDMAAAMKAVTEQGHELSNEERNLLSVAYKNVVGARRSSWRVISSIEQKTERNEKKQQMGKEYREKIEAELQDICNDVLELLDKYLIPNATQPESKVFYLKMKGDYFRYLSEVASGDNKQTTVSNSQQAYQEAFEISKKEMQPTHPIRLGLALNFSVFYYEILNSPEKACSLAKTAFDEAIAELDTLNEESYKDSTLIMQLLRDNLTLWTSENQGDEGDAGEGEN

Columns and labels:
[1] = target: B7; assay: FP
[2] = target: B14; assay: FP
[3] = target: B5; assay: FP
[4] = target: B7; assay: FP
[5] = target: peptide 13; assay: FP
[6] = target: T1, 14-3-3ζ, full length, N-terminally …; assay: FP
[7] = target: T2, 14-3-3γ, full length, N-terminally …; assay: FP
[8] = target: T3, 14-3-3θ, full length, N-terminally …; assay: FP
[9] = target: T4, 14-3-3ε, full length, N-terminally …; assay: FP
[10] = target: B14; assay: FP
[11] = target: B5; assay: FP
[12] = target: B7; assay: FP
[13] = target: peptide 13; assay: FP; remark: listed apart in the source
[14] = target: B14; assay: FP
[15] = target: B7; assay: ITC; replicate A
[16] = target: B7; assay: ITC; replicate B
[17] = target: B7; assay: ITC

Binder: B1
Kd [1]: 0.18 µM
Kd [2]: 0.45 µM
Kd [3]: 4.1 µM
Kd [4]: 0.18 µM

Binder: B2
Kd [2]: 60 µM
Kd [3]: > 167 µM

Binder: B3
Kd [2]: 0.11 µM
Kd [3]: 1.8 µM

Binder: B4
Kd [1]: 18 µM
Kd [2]: 32 µM
Kd [3]: > 167 µM
Kd [4]: 18 µM

Binder: B5
Kd [5]: > 167 µM

Binder: B6
Kd [2]: 0.71 µM
Kd [3]: 3.5 µM
Kd [6]: 1.2 µM
Kd [7]: 1.16 µM
Kd [8]: 2 µM
Kd [9]: 1.1 µM
Kd [10]: 0.7 µM
Kd [11]: 3.9 µM
Kd [12]: 0.21 µM

Binder: B7
Kd [5]: > 83 µM
Kd [13]: > 83 µM

Binder: B8
Kd [14]: > 167 µM
Kd [1]: 70 µM

Binder: B9
Kd [1]: 0.42 µM
Kd [2]: 0.88 µM
Kd [3]: 6.6 µM
Kd [4]: 0.42 µM

Binder: B10
Kd [14]: > 333 µM
Kd [1]: > 167 µM

Binder: B11
Kd [1]: 15 µM
Kd [2]: 23 µM
Kd [3]: > 167 µM
Kd [4]: 15 µM

Binder: B12
Kd [14]: 45 µM

Binder: B13
Kd [15]: 2.48 µM
Kd [16]: 2.01 µM
Ka [17]: 403000 M⁻¹ and 488000 M⁻¹ and 497000 M⁻¹

Binder: B14
Kd [5]: > 167 µM
